According to article PMC3773400, “Intracellular Secretory Leukoprotease Inhibitor Modulates Inositol 1,4,5-Triphosphate Generation and Exerts an Anti-Inflammatory Effect on Neutrophils of Individuals with Cystic Fibrosis and Chronic Obstructive Pulmonary Disease” (BioMed Research International, 2013):

What was measured:
calpain 2 = calpain 2 (UniProt P17655 20-700); test: enzyme inhibition kinetics (Calpain-Glo protease assay); cleavage of the calpain substrate Suc-LLVY-aminoluciferin, luminescence; calpastatin 0-80 nM, rhSLPI 0-640 nM; Ki by global curve fit in GraphPad Prism 4.03; details: both partners purified
calpain 1 = calpain 1 (UniProt P07384 1-714); test: as above; details: both partners purified
Chain of calpain 1 (P07384 2-714, chain 1 of 2): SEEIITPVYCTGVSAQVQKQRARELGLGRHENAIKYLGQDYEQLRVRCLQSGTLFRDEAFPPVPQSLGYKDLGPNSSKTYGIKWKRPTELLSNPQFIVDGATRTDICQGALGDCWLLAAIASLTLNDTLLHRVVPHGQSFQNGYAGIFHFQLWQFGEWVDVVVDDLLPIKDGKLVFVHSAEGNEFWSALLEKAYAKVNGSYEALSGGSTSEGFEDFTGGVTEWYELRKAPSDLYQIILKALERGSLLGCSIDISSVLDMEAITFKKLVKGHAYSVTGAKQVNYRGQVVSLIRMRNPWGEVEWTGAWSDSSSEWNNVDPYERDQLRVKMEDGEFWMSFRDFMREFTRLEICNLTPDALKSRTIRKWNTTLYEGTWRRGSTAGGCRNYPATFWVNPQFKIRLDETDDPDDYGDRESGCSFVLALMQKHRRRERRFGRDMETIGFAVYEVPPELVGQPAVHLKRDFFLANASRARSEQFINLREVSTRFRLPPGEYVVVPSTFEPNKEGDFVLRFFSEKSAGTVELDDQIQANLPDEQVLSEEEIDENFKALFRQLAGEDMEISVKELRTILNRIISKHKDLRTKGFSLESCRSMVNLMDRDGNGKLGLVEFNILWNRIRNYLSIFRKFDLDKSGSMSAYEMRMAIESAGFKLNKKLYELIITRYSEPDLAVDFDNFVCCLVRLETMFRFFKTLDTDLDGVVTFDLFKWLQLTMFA
Chain of calpain 1 (P04632 whole entry, chain 2 of 2, further chain): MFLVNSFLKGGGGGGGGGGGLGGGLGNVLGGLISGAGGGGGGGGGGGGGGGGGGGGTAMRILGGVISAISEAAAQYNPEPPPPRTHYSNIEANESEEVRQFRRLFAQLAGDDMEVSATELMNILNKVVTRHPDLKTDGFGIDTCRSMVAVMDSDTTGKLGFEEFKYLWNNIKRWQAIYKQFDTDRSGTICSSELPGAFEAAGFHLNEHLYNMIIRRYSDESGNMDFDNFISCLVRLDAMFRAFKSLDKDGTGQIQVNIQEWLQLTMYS

B1: calpastatin (natural protein)
chain: MNPTETKAIPVSQQMEGPHLPNKKKHKKQAVKTEPEKKSQSTKLSVVHEKKSQEGKPKEHTEPKSLPKQASDTGSNDAHNKKAVSRSAEQQPSEKSTEPKTKPQDMISAGGESVAGITAISGKPGDKKKEKKSLTPAVPVESKPDKPSGKSGMDAALDDLIDTLGGPEETEEENTTYTGPEVSDPMSSTYIEELGKREVTIPPKYRELLAKKEGITGPPADSSKPIGPDDAIDALSSDFTCGSPTAAGKKTEKEESTEVLKAQSAGTVRSAAPPQEKKRKVEKDTMSDQALEALSASLGTRQAEPELDLRSIKEVDEAKAKEEKLEKCGEDDETIPSEYRLKPATDKDGKPLLPEPEEKPKPRSESELIDELSEDFDRSECKEKPSKPTEKTEESKAAAPAPVSEAVCRTSMCSIQSAPPEPATLKGTVPDDAVEALADSLGKKEADPEDGKPVMDKVKEKAKEEDREKLGEKEETIPPDYRLEEVKDKDGKPLLPKESKEQLPPMSEDFLLDALSEDFSGPQNASSLKFEDAKLAAAISEVVSQTPASTTQAGAPPRDTSQSDKDLDDALDKLSDSLGQRQPDPDENKPMEDKVKEKAKAEHRDKLGERDDTIPPEYRHLLDDNGQDKPVKPPTKKSEDSKKPADDQDPIDALSGDLDSCPSTTETSQNTAKDKCKKAASSSKAPKNGGKAKDSAKTTEETSKPKDD
modifications: Paper names only 'calpastatin (endogenous calpain inhibitor)'. Supplier, species, isoform and limits are not stated. Full-length human canonical form is assumed; a commercial single inhibitory domain
Ki (calpain 2): 1.55 nM | Ki (calpain 1): 5.55 nM
